In article PMC2148453:

How the values were obtained:
[1] = target: microtubules (taxol-stabilised, polymerised from PC-tubulin; tubulin alpha-beta heterodimer) (UniProt P02550); experiment: cryo-EM structure
[2] = target: microtubules (taxol-stabilised, polymerised from PC-tubulin; tubulin alpha-beta heterodimer) (UniProt P02550); experiment: co-sedimentation

Chain of UniProt P02550 (P02550 whole entry, looked up, one chain of several): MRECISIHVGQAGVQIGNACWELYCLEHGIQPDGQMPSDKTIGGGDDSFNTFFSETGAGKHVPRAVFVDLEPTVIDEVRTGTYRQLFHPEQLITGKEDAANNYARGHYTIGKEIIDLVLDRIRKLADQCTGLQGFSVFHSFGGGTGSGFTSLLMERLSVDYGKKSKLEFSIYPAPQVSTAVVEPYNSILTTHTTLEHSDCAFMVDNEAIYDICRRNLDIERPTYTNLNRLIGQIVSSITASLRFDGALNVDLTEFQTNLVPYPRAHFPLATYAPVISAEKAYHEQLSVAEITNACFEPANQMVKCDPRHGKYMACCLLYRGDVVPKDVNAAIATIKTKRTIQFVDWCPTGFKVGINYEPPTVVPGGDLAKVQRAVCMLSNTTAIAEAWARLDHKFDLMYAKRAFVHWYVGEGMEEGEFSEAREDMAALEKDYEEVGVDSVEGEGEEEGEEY

stoichiometry N (kinesin head per tubulin heterodimer) [1]	Kd [2] [µM]	stoichiometry N (kinesin heads per tubulin dimer) [2]	stoichiometry N (head per tubulin dimer) [1]	stoichiometry N (head per tubulin heterodimer) [1]	Substance
1					rat kinesin construct rK354 (from UniProt P56536 1-354) (domain or fragment)
	0.4	1.1	1	1	rat kinesin construct rK379 (from UniProt P56536 1-379) (domain or fragment)
